Assay results published in patent US20230375530A1, “HUMAN BLOOD-BRAIN BARRIER MODEL FOR IMMUNOLOGICAL STUDIES” (WISCONSIN ALUMNI RESEARCH FOUNDATION, priority 2020, published 2023).

B1: Wnt3a: ligand widely used to activate canonical Wnt/β-catenin signaling (R&D Systems) (protein, UniProt P56704 19-352, looked up)
Protein Wnt-3a: SYPIWWSLAVGPQYSSLGSQPILCASIPGLVPKQLRFCRNYVEIMPSVAEGIKIGIQECQHQFRGRRWNCTTVHDSLAIFGPVLDKATRESAFVHAIASAGVAFAVTRSCAEGTAAICGCSSRHQGSPGKGWKWGGCSEDIEFGGMVSREFADARENRPDARSAMNRHNNEAGRQAIASHMHLKCKCHGLSGSCEVKTCWWSQPDFRAIGDFLKDKYDSASEMVVEKHRESRGWVETLRPRYTYFKVPTERDLVYYEASPNFCEPNPETGSFGTRDRTCNVSSHGIDGCDLLCCGRGHNARAERRREKCRCVFHWCCYVSCQECTRVYDVHTCK
B2: Wnt7b: recombinant Wnt ligand (Abnova) (protein, UniProt P56706 25-349, looked up)
Protein Wnt-7b: ALSSVVALGANIICNKIPGLAPRQRAICQSRPDAIIVIGEGAQMGINECQYQFRFGRWNCSALGEKTVFGQELRVGSREAAFTYAITAAGVAHAVTAACSQGNLSNCGCDREKQGYYNQAEGWKWGGCSADVRYGIDFSRRFVDAREIKKNARRLMNLHNNEAGRKVLEDRMQLECKCHGVSGSCTTKTCWTTLPKFREVGHLLKEKYNAAVQVEVVRASRLRQPTFLRIKQLRSYQKPMETDLVYIEKSPNYCEEDAATGSVGTQGRLCNRTSPGADGCDTMCCGRGYNTHQYTKVWQCNCKFHWCCFVKCNTCSERTEVFTCK
B3: Rspo1: potentiator of Wnt signaling (protein, UniProt Q2MKA7 21-263, looked up)
R-spondin-1: SRGIKGKRQRRISAEGSQACAKGCELCSEVNGCLKCSPKLFILLERNDIRQVGVCLPSCPPGYFDARNPDMNKCIKCKIEHCEACFSHNFCTKCKEGLYLHKGRCYPACPEGSSAANGTMECSSPAQCEMSEWSPWGPCSKKQQLCGFRRGSEERTRRVLHAPVGDHAACSDTKETRRCTVRRVPCPEGQKRRKGGQGRRENANRNLARKESKEAGAGSRRRKGQQQQQQQGTVGPLTSAGPA
B4: Wnt7a: recombinant Wnt ligand (Peprotech) (protein, UniProt O00755 32-349, looked up)
Protein Wnt-7a: LGASIICNKIPGLAPRQRAICQSRPDAIIVIGEGSQMGLDECQFQFRNGRWNCSALGERTVFGKELKVGSREAAFTYAIIAAGVAHAITAACTQGNLSDCGCDKEKQGQYHRDEGWKWGGCSADIRYGIGFAKVFVDAREIKQNARTLMNLHNNEAGRKILEENMKLECKCHGVSGSCTTKTCWTTLPQFRELGYVLKDKYNEAVHVEPVRASRNKRPTFLKIKKPLSYRKPMDTDLVYIEKSPNYCEEDPVTGSVGTQGRACNKTAPQASGCDLMCCGRGYNTHQYARVWQCNCKFHWCCYVKCNTCSERTEMYTCK

What was measured:
[1] = test system: UMM- and DMM-differentiated BMEC-like cells
Experimental: Unconditioned medium method (UMM) (14, 16) and defined medium method (DMM) (17) were slightly modified and used to differentiate brain microvascular endothelial-like cells (BMEC-like cells). In brief, hiPSCs were seeded onto a Matrigel-coated plate in mTeSR1 supplemented with 10 μM ROCK inhibitor Y-27632 (Selleckchem, Houston, TX, USA) for 24 hours (day −3 or day −4). […] At day 0, cells were induced to differentiate using specific medium for each method: For UMM, medium was switched to unconditioned medium (DMEM/F12 with 20% Knockout serum replacement, 1× non-essential amino acids, 0.5× Glutamax, and 0.1 mM β-mercaptoethanol) and changed every day for 6 days. For DMM, medium was switched to DeSR1 (DMEM/F12 with 1× non-essential amino acids, 0.5× Glutamax, and 0.1 mM β-mercaptoethanol) supplemented with 6 μM CHIR99021 (Selleckchem, Houston, TX, USA) and cultured for 24 hours. […]
(§1) Permeability of EC monolayers was assessed by measuring the clearance of sodium fluorescein (NaFl, 376.3 Da, Sigma-Aldrich) as previously described (16). […] Medium samples containing fluorescent tracer that had diffused across the monolayers were collected from the bottom well every 15 min for a total of 60 min, and fluorescence intensity was measured in a Tecan Infinite M1000 multi-well reader (Tecan Trading AG, Männedorf, Switzerland). […]

[2] = test system: EECM-BMEC-like cell monolayers; assay type: in vitro ADME, human
Experimental: EPCs purified as described above were plated on collagen IV (10 μg/ml)-coated plates in hECSR medium in the presence of 5 μM ROCK inhibitor Y-27632 of 10′000-20′000/cm^2 as described before (33). Twenty-four hours later, medium was changed to hECSR without ROCK inhibitor and then medium was changed every 2 days. Once the cells reached 100% confluency (FIG. 3B (i)), the cells were passaged using Accutase (Innovative Cell Technologies, San Diego, CA, USA). In detail, medium was removed and 1 ml of Accutase was added to the 6-well plate and cells were carefully observed under an inverted microscope (Zeiss Axiovert 25). Once endothelial cells started to become round (FIG. 3B (ii)), the endothelial cells were physically detached by tapping the 6-well plate (FIG. 3B (iii)). […] These cell densities were found optimal for achieving closed monolayers. Coating with collagen IV/fibronectin for Transwell filters was chosen as it was previously shown to be optimal for growing primary BMECs and for UMM-BMEC-like cells. […]
Bovine pericytes (15), the human brain pericyte cell line (HBPCT) (34), the human astrocyte cell line (hAST) (35), and hiPSC-derived astrocytes (iPS_AC) (29) were obtained and maintained as previously described. […] Transendothelial electrical resistance (TEER) was measured using a Volt-Ohm-Meter (Millicell ERS-2, MERSSTX01-electrode). […]

[3] = test system: hPSC-derived endothelial progenitors (Passage 1 ECs); assay: Immunocytochemistry of Passage 1 ECs treated with Wnt ligands, CHIR or conditioned media; assay type: cell-based, human; details: for fraction of GLUT-1+ ECs vs control: Passage 1 ECs, 6 days, Wnt3a 20 ng/mL, Wnt7a 50 ng/mL, Wnt7b 50 ng/mL; for EC purity (proportion of ECs compared to SMLCs): Passage 1 cultures, 6 days treatment
Experimental: Collagen IV (Sigma-Aldrich) was dissolved in 0.5 mg/mL acetic acid to a final concentration of 1 mg/mL. Collagen IV-coated plates were prepared by diluting a volume of this stock solution 1:100 in water, adding the resulting solution to tissue culture plates, or #1.5 glass bottom plates (Cellvis, Sunnyvale, CA) for cells intended for confocal imaging (1 mL per well for 6-well plates, 0.5 mL per well for 12-well plates, 0.25 mL per well for 24-well plates), and incubating the plates for 1 h at RT. Collagen IV coating solution was removed and EPCs obtained as described above were suspended in hECSR medium and plated at approximately 3×10^4 cells/cm^2. In some experiments, cells were suspended in NR-CM or Astro-CM. In some experiments, ligands and small molecules were added to hECSR medium: CHIR 99021 (Tocris) was used at 4 μM except where indicated; DMSO (Sigma-Aldrich) was used as a vehicle control for CHIR; Wnt3a (R&D Systems) was used at 20 ng/mL; Wnt7a (Peprotech, Rocky Hill, NJ) was used at 50 ng/mL; Wnt7b (Abnova, Tapei, Taiwan) was used at 50 ng/mL; R-spondin 1 (Rspo1; Peprotech) was used at 50 ng/mL; doxycycline was used at 1, 2, or 4 μg/mL. The hECSR medium or CM, including any ligands or small molecules, was replaced every other day until confluent (typically 6 days). We denote this time point “Passage 1.”
Immunocytochemistry was performed in 24-well plates. Cells were washed once with 500 μL DPBS and fixed with 500 μL cold (−20° C.) methanol for 5 min, except cells intended for calponin/SM22a and CD31/Ki67 detection, which were fixed with 500 μL of 4% paraformaldehyde for 15 min. Cells were washed three times with 500 μL DPBS and blocked in 150 μL DPBS supplemented with 10% goat serum (Life Technologies) for 1 h at room temperature, except cells intended for calponin/SM22α detection, which were blocked and permeabilized in DPBS supplemented with 3% BSA and 0.1% Triton X-100, or cells intended for CD31/Ki67 detection, which were blocked and permeabilized in DPBS supplemented with 5% non-fat dry milk and 0.4% Triton X-100. Primary antibodies diluted in 150 μL of the above blocking solutions (see Table 6 for antibody information) were added to cells and incubated overnight at 4° C. on a rocking platform. Cells were washed three times with 500 μL DPBS. Secondary antibodies diluted in 150 μL of the above blocking solutions (see Table 6 for antibody information) were added to cells and incubated for 1 h at room temperature on a rocking platform, protected from light. Cells were washed three times with 500 μL DPBS, followed by 5 min incubation with 500 μL DPBS plus 4 μM Hoechst 33342 (Life Technologies). Images were acquired using an Eclipse Ti2-E epifluorescence microscope (Nikon, Tokyo, Japan) with a 20× objective or an A1R-Si+ confocal microscope (Nikon) with a 100× oil objective. Confocal images were acquired with 1 μm slice spacing.
Images were analyzed using FIJI (ImageJ) software. For epifluorescence images, 5 fields (20×) were analyzed per well, with 3-4 wells per treatment condition. For quantification of cell number, EC colonies were manually outlined, and the Analyze Particles function was used to estimate the number of nuclei within the EC colonies. Nuclei outside the EC colonies were manually counted. EC purity (% EC) was calculated as the number of nuclei within EC colonies relative to total nuclei. To estimate % GLUT-1^+ ECs, cells within the EC colonies with membrane-localized GLUT-1 immunoreactivity (e.g., arrowheads in FIG. 24B) were manually counted. To estimate % Ki67^+ ECs, cells within the EC colonies with at least one nuclear-localized Ki67 punctum were manually counted. For quantification of fluorescence intensity in epifluorescence images, EC colonies were manually outlined, and the Measure function was used to obtain the mean fluorescence intensity for each image channel (fluorophore). A cell-free area of the plate was similarly quantified for background subtraction. […]

Experimental for hiPSC-derived naïve ECs: CD34^+ CD31^+ endothelial progenitor cells (EPCs) were differentiated from hiPSCs as described (32, 33). In brief, hiPSCs were seeded onto a Matrigel-coated plate in mTeSR1 supplemented with 5 μM ROCK inhibitor Y-27632 for 24 hours (day −3). Seeding densities at day −3 were optimized between 16′000/cm^2 to 132′000/cm^2 depending on donor and passage in order to obtain high number of CD34^+ CD31^+ EPCs. At day 0 and day 1, medium was changed to LaSR basal medium (Advanced DMEM/F12, 2.5 mM GlutaMAX, and 60 μg/ml ascorbic acid) supplemented with 8 μM CHIR99021. At day 2, medium was switched to LaSR basal medium and changed every day for another 3 days. […] Purified EPCs were seeded onto collagen IV/fibronectin-coated Transwell filters at a density of 100′000/cm^2 or collagen-IV (10 μg/ml)-coated culture plates at a density of 10′000-20′000/cm^2 in hECSR medium and used for assay or further extended EC culture.
as §1

Molecule | fraction of GLUT-1+ ECs vs control [3] | EC purity (proportion of ECs compared to SMLCs) [3] | also measured
O=C([O-])c1ccccc1-c1c2ccc(=O)cc-2oc2cc([O-])ccc12.[Na+].[Na+] [sodium fluorescein] |  |  | permeability to sodium fluorescein [1]: less than 0.6 ×10^−4 cm/min; lower permeability compared to naïve ECs [2]: ~10 fold; PeNaFl, permeability to sodium fluorescein (hiPSC-derived naïve ECs): 2-10 ×10^−3 cm/min
B1 | significant increase | not Wnt3a | 
B2 | not Wnt7b alone |  | 
B3 |  |  | EC purity or expression of GLUT-1, claudin-5 or caveolin-1 ([3]; Rspo1 50 ng/mL in combination with Wnt ligands): did not affect
B4 | slightly increased | increased the proportion of ECs | 
